Experimental data taken from US20160299151.

Legend:
[1] = biological target: T1, L-alanine-L-glutamine
T1 chain: AQ

[2] = biological target: T2, L-glycine-L-glutamine
T2 chain: GQ

B1: holo-BpsA (BpsA pre-activated by Sfp as in Example 1), His6-tagged recombinant polypeptide (protein)
chain: MTLQETSVLEPTLQGTTTLPGLLAQRVAEHPEAIAVAYRDDKLTFRELASRSAALADYLEHLGVSADDCVGLFVEPSIDLMVGAWGILNAGAAYLPLSPEYPEDRLRYMIENSETKIILAQQRLVSRLRELAPKDVTIVTLRESEAFVRPEGTEAPAARSARPDTLAYVIYTSGSTGKPKGVMIEHRSIVNQLGWLRETYAIDRSKVILQKTPMSFDAAQWEILSPANGATVVMGAPGVYADPEGLIETIVKHNVTTLQCVPTLLQGLIDTEKFPECVSLQQIFSGGEALSRLLAIQTTQEMPGRALINVYGPTETTINSSSFPVDPADLDEGPQSISIGSPVHGTTYHILDKETLKPVGVGEIGELYIGGIQLARGYLHRDDLTAERFLEIELEEGAEPVRLYKTGDLGQWNNDGTVQFAGRADNQVKLRGYRVELDEISLAIENHDWVRNAAVIVKNDGRTGFQNLIACIELSEKEAALMDQGNHGSHHASKKSKLQVKAQLSNPGLRDDAELAARPAFDLEGAEPTPEQRARVFARKTYRFYEGGAVTQADLLGLLGATVTAGYSRKAADLAPAELGQILRWFGQYISEERLLPKYGYASPGALYATQMYFELEGVGGLKPGYYYYQPVRHQLVLISEREATGKATAQIHFIGKKSGIEPVYKNNILEVLEIETGHMVGLFEQILPAYGLDIHDRAYEPAVKDLLDVADEDYYLGTFELVPHAGARDDQAEVYVQTHGGKVAGLPEGQYRYENGELTRFSDDIVLKKHVIAINQSVYQAASFGISVYSRAEEEWLKYITLGKKLQHLMMNGLNLGFMSSGYSSKTGNPLPASRRMDAVLGANGVDSAPMYFFVGGRISDEQIGHEGMREDSVHMRGPAELIRDDLVSFLPDYMIPNRVVVFDRLPLSANGKIDVKALAASDQVNAELVERPFVAPRTETEKEIAAVWEKALRRENASVQDDFFESGGNSLIAVGLVRELNARLGVSLPLQSVLESPTIEKLARRLEREVAQESSRFVRLHAETGKARPVICWPGLGGYPMNLRSLAGEIGLGRSFYGVQSYGINEGETPYETITEMAKKDIEALKEIQPAGPYTLWGYSFGARVAFETAYQLEQAGEKVDNLFLIAPGSPKVRAENGKVWGREASFANRGYTTILFSVFTGTISGPDLDRCLETVTDEASFAEFISELKGIDVDLARRIISVVGQTYEFEYSFHELAERTLQAPISIFKAVGDDYSFLENSSGYSAEPPTVIDLDADHYSLLREDIGELVKHIRYLLGE
blue pigment formation (A590 after resuspension in DMSO) after 72 hours at 25 C with 4 mM substrate [1]: In each case except the no substrate control, blue pigment formation was observed, suggesting that an indigoidine like product had indeed been formed | blue pigment formation (A590 after resuspension in DMSO) after 72 hours at 25 C with 4 mM substrate [2]: In each case except the no substrate control, blue pigment formation was observed, suggesting that an indigoidine like product had indeed been formed
